T1: CD25 (R&D systems cat. #223-2A/CF) (UniProt P01589 22-213, limits assumed)
T1 construct: Bought soluble protein
T1 sequence (looked up): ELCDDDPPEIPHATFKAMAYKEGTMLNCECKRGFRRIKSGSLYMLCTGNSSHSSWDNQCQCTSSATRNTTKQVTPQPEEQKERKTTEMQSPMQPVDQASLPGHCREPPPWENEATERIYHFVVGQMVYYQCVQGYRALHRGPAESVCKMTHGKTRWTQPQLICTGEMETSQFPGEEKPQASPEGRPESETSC


Target: T1, CD25 (R&D systems cat. #223-2A/CF)
Assay: Biacore (SPR); antibody captured on Protein A, CD25 injected
Description: Binding was measured by injection of two-fold serial dilutions of CD25 (0 nM to 50 nM; R&D systems) in buffer at 25° C. with a flow rate of 25-30 μL/min for 2 min followed by a dissociation phase of 4-5 min. Association rates (kₒₙ) and dissociation rates (koff) were calculated using a simple one-to-one Langmuir binding model (BIAcore Evaluation Software version 3.2). The equilibrium dissociation constant (Kd) was calculated as the ratio of koff/kₒₙ).

Fold change in Kd vs. H0L0 [fold]	Kd [nM]	koff [s⁻¹]	kon [M⁻¹ s⁻¹]	Binder
-4.2	1.1	0.00048	430000	anti-CD25 H1L1.20 (antibody, V domains shown, also called VL combination variant L1.20 paired with H1) VH: QVQLVQSGAEVKKPGASVKVSCKASGYTFTSYRMHWVRQAPGQGLEWMGYINPSTGYTEYNQKFQGRVTITADKSISTAYMELSRLRSDDTAVYYCARGGGVFDYWGQGTLVTVSS VL: EIVLTQSPATLSLSPGERATLSCRASQSVSYLHWYQQKPGQAPRLLIYTTSNRATGIPARFSGSGSGTDFTLTISSLEPEDFAVYYCHQRSTYPLTFGSGTKLEIK
1.6	0.16	0.00017	1e+06	anti-CD25 H1.14L1.56 (antibody, V domains shown) VH: not shown VL: QIVLTQSPATLSLSPGERATLSCRASQSVSYLHWFQQKPGQSPQLLIYTTSNRATGIPARFSGSGSGTDFTLTISSLEPEDFAVYYCHQRSTYPLTFGSGTKLEIK
1.2	0.21	0.00017	790000	anti-CD25 H1.14L1.48 (antibody, V domains shown) VH: not shown VL: EIVLTQSPATLSLSPGERATLSCRASQSVSYMHWYQQKPGQAPRLLIYTTSNRATGIPARFSGSGSGTDFTLTISSLEPEDFAVYYCHQRSTYPLTFGSGTKLEIK
1.4	0.19	0.00014	720000	anti-CD25 H1.12L1.43 (antibody, V domains shown) VH: not shown VL: EIVLTQSPATLSLSPGERATLSCRASQSVSYLHWYQQKPGQAPRLLIYTTSNRATGIPARFSGSGSGTDYTLTISSLQPEDFAVYYCHQRSTYPLTFGSGTKLEIK
-1.3	0.32	0.00022	670000	anti-CD25 H1.14L1.43 (antibody, V domains shown) VH: not shown VL: EIVLTQSPATLSLSPGERATLSCRASQSVSYLHWYQQKPGQAPRLLIYTTSNRATGIPARFSGSGSGTDYTLTISSLQPEDFAVYYCHQRSTYPLTFGSGTKLEIK
1.2	0.21	0.00018	850000	anti-CD25 H1.12L1.56 (antibody, V domains shown) VH: not shown VL: QIVLTQSPATLSLSPGERATLSCRASQSVSYLHWFQQKPGQSPQLLIYTTSNRATGIPARFSGSGSGTDFTLTISSLEPEDFAVYYCHQRSTYPLTFGSGTKLEIK
-2.4	0.63	0.00031	500000	anti-CD25 H1L1.48 (antibody, V domains shown, also called VL combination variant L1.48 paired with H1) VH: QVQLVQSGAEVKKPGASVKVSCKASGYTFTSYRMHWVRQAPGQGLEWMGYINPSTGYTEYNQKFQGRVTITADKSISTAYMELSRLRSDDTAVYYCARGGGVFDYWGQGTLVTVSS VL: EIVLTQSPATLSLSPGERATLSCRASQSVSYMHWYQQKPGQAPRLLIYTTSNRATGIPARFSGSGSGTDFTLTISSLEPEDFAVYYCHQRSTYPLTFGSGTKLEIK
-5	1.3	0.00053	410000	anti-CD25 H1L1.43 (antibody, V domains shown, also called VL combination variant L1.43 paired with H1) VH: QVQLVQSGAEVKKPGASVKVSCKASGYTFTSYRMHWVRQAPGQGLEWMGYINPSTGYTEYNQKFQGRVTITADKSISTAYMELSRLRSDDTAVYYCARGGGVFDYWGQGTLVTVSS VL: EIVLTQSPATLSLSPGERATLSCRASQSVSYLHWYQQKPGQAPRLLIYTTSNRATGIPARFSGSGSGTDYTLTISSLQPEDFAVYYCHQRSTYPLTFGSGTKLEIK
-5	1.3	0.0007	540000	anti-CD25 H1L1.56 (antibody, V domains shown, the fourth VL chain; also called VL combination variant L1.56 paired with H1) VH: QVQLVQSGAEVKKPGASVKVSCKASGYTFTSYRMHWVRQAPGQGLEWMGYINPSTGYTEYNQKFQGRVTITADKSISTAYMELSRLRSDDTAVYYCARGGGVFDYWGQGTLVTVSS VL: QIVLTQSPATLSLSPGERATLSCRASQSVSYLHWFQQKPGQSPQLLIYTTSNRATGIPARFSGSGSGTDFTLTISSLEPEDFAVYYCHQRSTYPLTFGSGTKLEIK
